The values that follow come from US20240294593A1 (Genentech, published 2024).

Usually koff stands for the rate constant with which the complex falls apart. The kon is the second-order rate constant of association. Read a high kon as fast association.

Positions count from the first letter of the chain named. In names and notes the source's numbering stands.

For assay [1], the target named is T1, human PD-1-His (human, UniProt Q15116 25-167, limits assumed).
T1 construct: Antigen of the Octet assays; not shown: His tag
The experiment in a line: Octet (BLI); antibody captured on anti-human Fc (AHC) biosensors and dipped into multiple concentrations of human PD-1-His.

Assay [2] deals with T1, human PD-1-His. The experiment in a line: Octet (BLI), bivalent IgG1 mAb.
Assay [3] has as its target T1, human PD-1-His. The experiment in a line: Octet (BLI), bivalent IgG1 mAb; legend calls the constant apparent (KDapp). (In BLI a coated tip is dipped into the sample, and binding shifts an interference pattern.)
Assay [4] addresses T1, human PD-1-His. Put plainly: Octet (BLI), AHC capture of the bivalent mAb, PD-1 in solution. From the text:
(§1) In particular, anti-human IgG-Fc (AHC) biosensors were used to capture the test articles and dipped into multiple concentrations of PD-1.

Assay [5] deals with T1, human PD-1-His. The experiment in a line: Octet (BLI), AHC biosensors capture the bivalent mAb, dipped into multiple concentrations of PD-1; KDapp per legend.
Source text: as §1

T1 sequence (Q15116 25-167 limits assumed): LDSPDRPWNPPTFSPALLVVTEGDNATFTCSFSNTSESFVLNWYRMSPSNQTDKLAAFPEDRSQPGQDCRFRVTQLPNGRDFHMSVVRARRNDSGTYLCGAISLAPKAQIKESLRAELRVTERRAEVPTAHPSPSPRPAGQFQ

B1: XENP28539 (humanized variant of mAb C, bivalent human IgG1) (antibody, V domains shown)
VH: EVQLVESGGGLVKPGGSLRLSCAASGFTFSSFGMHWVRQAPGKGLEWVGYISSGSSIIYYADPVKGRFTISRDNSKNTLYLQMNSLKTEDTAVYYCARGGRLVWSPDYWGQGTLVTVSS
VL: DIVMTQSPLSLPVTPGEPASISCRSSQSLLNSGNQKNYLTWYLQKPGQPPQLLIYWASTRESGVPDRFTGSGSGTDFTLKISRVEAEDVGVYYCQNDYSYPFTFGSGTKLEIKR
notes: Human IgG1 with E233P/L234V/L235A/G236del/S267K
Take B1: the binding result in the assay with human PD-1-His [1] is reported as “no binding”.

B2: H1.178_L1.140 (XENP32424) (antibody, V domains shown)
VH: EVQLVESGGGLVQPGGSLRLSCAASGFTFSSLGMHWVRQAPGKGLEWVSYISGGSSIIYYADSVKGRFTISRDNAKNSLYLQMNSLRAEDTAVYYCARGGFLVFSPDYWGQGTLVTVSS
VL: DIVMTQSPDSLAVSLGERATINCKSSQSLLHSGNQYNYLTWYQQKPGQPPKLLIYWASTRESGVPDRFTGSGSGTDFTLTISSLQAEDVAVYYCQNDYTYPFTFGSGTKLEIKR
notes: VH-F34L/S55G/R109F/W112F, VL-N31H/K36Y/S99T (Xencor #); Kabat positions VH-32/52A/97/100, VL-27D/30/93; also called mAb C[PD-1]_H1.178_L1.140; copies: 2 + 2
As to B2, in the assay with human PD-1-His [2], the koff amounted to 0.000182 s⁻¹ and the kon was 184000 M⁻¹ s⁻¹. For the same molecule, the Kd in the assay with human PD-1-His [3] amounted to 0.986 nM.

B3: H1.185_L1.140 (XENP32431) (antibody, V domains shown)
VH: B2 VH with F101H
VL: B2 VL
notes: VH-F34L/S55G/R109H/W112F, VL-N31H/K36Y/S99T (Xencor #); Kabat positions VH-32/52A/97/100, VL-27D/30/93; also called mAb C[PD-1]_H1.185_L1.140; copies: 2 + 2
Consider B3, for which, in the assay with human PD-1-His [2], the koff stood at 0.000169 s⁻¹ and the kon was determined as 160000 M⁻¹ s⁻¹. In addition, the Kd with human PD-1-His [3] amounted to 1.06 nM.

B4: H1.216_L1.1 (XENP32832) (antibody, human IgG1, kappa, V domains shown)
VH: B2 VH with L32F, G53S, F101S, L102V, V103L
VL: B2 VL with Y36K, T99S
notes: VH substitution R109S/L110V/V111L/W112F (Xencor #); R97S/L98V/V99L/W100F (Kabat); also called mAb C[PD1]_H1.216_L1.1_IgG1_PVA_/S267K
Take B4: in the assay with human PD-1-His [4], the koff came out at 0.00218 s⁻¹ and the kon was 193000 M⁻¹ s⁻¹. For the same molecule, the Kd in the assay with human PD-1-His [5] was 11.4 nM.

B5: H1.220_L1.1 (XENP32836) (antibody, human IgG1, kappa, V domains shown)
VH: B2 VH with L32F, G53S, F101R, V103Y
VL: B2 VL with Y36K, T99S
notes: VH substitution V111Y/W112F (Xencor #); V99Y/W100F (Kabat); also called mAb C[PD1]_H1.220_L1.1_IgG1_PVA_/S267K
With B5, in the assay with human PD-1-His [4], the koff is 0.00557 s⁻¹ and the kon turned out to be 140000 M⁻¹ s⁻¹. The Kd with human PD-1-His [5] was 39.9 nM.

B6: H1.181_L1.140 (XENP32427) (antibody, V domains shown)
VH: B2 VH with F101Q
VL: B2 VL
notes: VH-F34L/S55G/R109Q/W112F, VL-N31H/K36Y/S99T (Xencor #); Kabat positions VH-32/52A/97/100, VL-27D/30/93; also called mAb C[PD-1]_H1.181_L1.140; copies: 2 + 2
In the assay with human PD-1-His [2], B6 yielded a koff of 0.000173 s⁻¹ and a kon of 191000 M⁻¹ s⁻¹. Moreover, the Kd in the assay with human PD-1-His [3] was 0.905 nM.

B7: H1.184_L1.140 (XENP32430) (antibody, V domains shown)
VH: B2 VH with F101D
VL: B2 VL
notes: VH-F34L/S55G/R109D/W112F, VL-N31H/K36Y/S99T (Xencor #); Kabat positions VH-32/52A/97/100, VL-27D/30/93; also called mAb C[PD-1]_H1.184_L1.140; copies: 2 + 2
In the assay with human PD-1-His [2], B7 yielded a koff of 0.000188 s⁻¹ and a kon of 236000 M⁻¹ s⁻¹. Moreover, the Kd with human PD-1-His [3] was determined as 0.798 nM.

B8: H1.217_L1.1 (XENP32833) (antibody, human IgG1, kappa, V domains shown)
VH: B2 VH with L32F, G53S, F101R, V103S
VL: B2 VL with Y36K, T99S
notes: VH substitution V111S/W112F (Xencor #); V99S/W100F (Kabat); also called mAb C[PD1]_H1.217_L1.1_IgG1_PVA_/S267K
On to B8, for which, in the assay with human PD-1-His [4], the koff stood at 0.023 s⁻¹ and the kon came out at 143000 M⁻¹ s⁻¹. The Kd with human PD-1-His [5] was 161 nM.

B9: mAb C[PD1]_H1.177_L1.140 (bivalent IgG1) (antibody, V domains shown)
VH: B2 VH with F101R
VL: B2 VL
notes: Bivalent IgG1 format with E233P/L234V/L235A/G236_/S267K; copies: 2 + 2
As to B9, in the assay with human PD-1-His [2], the koff was found to be 0.00022 s⁻¹ and the on-rate (kon) amounted to 138000 M⁻¹ s⁻¹. In addition, in the assay with human PD-1-His [3], the Kd amounted to 1.6 nM.

B10: H1.188_L1.140 (XENP32434) (antibody, V domains shown)
VH: B2 VH with F101T
VL: B2 VL
notes: VH-F34L/S55G/R109T/W112F, VL-N31H/K36Y/S99T (Xencor #); Kabat positions VH-32/52A/97/100, VL-27D/30/93; also called mAb C[PD-1]_H1.188_L1.140
With B10, in the assay with human PD-1-His [2], the koff is 0.000177 s⁻¹ and the kon was 181000 M⁻¹ s⁻¹. Further, in the assay with human PD-1-His [3], the Kd is 0.981 nM.

B11: H1.224_L1.1 (XENP32840) (antibody, human IgG1, kappa, V domains shown)
VH: B2 VH with L32F, G53S, F101R, L102R, V103L
VL: B2 VL with Y36K, T99S
notes: VH substitution L110R/V111L/W112F (Xencor #); L98R/V99L/W100F (Kabat); also called mAb C[PD1]_H1.224_L1.1_IgG1_PVA_/S267K
In the assay with human PD-1-His [4], B11 gave a koff of 0.00416 s⁻¹ and an on-rate (kon) of 59400 M⁻¹ s⁻¹. Also, the Kd in the assay with human PD-1-His [5] turned out to be 70 nM.

B12: H1.215_L1.1 (XENP32831) (antibody, human IgG1, kappa, V domains shown)
VH: B2 VH with L32F, G53S, G100A, F101R
VL: B2 VL with Y36K, T99S
notes: VH substitution G108A/W112F (Xencor #); G96A/W100F (Kabat); also called mAb C[PD1]_H1.215_L1.1_IgG1_PVA_/S267K
Regarding B12, in the assay with human PD-1-His [4], the koff was found to be 0.00482 s⁻¹ and the kon was 107000 M⁻¹ s⁻¹. This molecule also returned a Kd with human PD-1-His [5] of 44.9 nM.

B13: H1.187_L1.140 (XENP32433) (antibody, V domains shown)
VH: B2 VH with F101W
VL: B2 VL
notes: VH-F34L/S55G/R109W/W112F, VL-N31H/K36Y/S99T (Xencor #); Kabat positions VH-32/52A/97/100, VL-27D/30/93; also called mAb C[PD-1]_H1.187_L1.140
In the assay with human PD-1-His [2], B13 returned a koff of 0.000198 s⁻¹ and a kon of 193000 M⁻¹ s⁻¹. In the assay with human PD-1-His [3], the Kd amounted to 1.03 nM.

B14: H1.183_L1.140 (XENP32429) (antibody, V domains shown)
VH: B2 VH with F101V
VL: B2 VL
notes: VH-F34L/S55G/R109V/W112F, VL-N31H/K36Y/S99T (Xencor #); Kabat positions VH-32/52A/97/100, VL-27D/30/93; also called mAb C[PD-1]_H1.183_L1.140; copies: 2 + 2
In the assay with human PD-1-His [2], B14 gave a koff of 0.000178 s⁻¹ and a kon of 187000 M⁻¹ s⁻¹. Also, in the assay with human PD-1-His [3], the Kd stood at 0.952 nM.
